One assay concerns the target T1, human B7-H4 on cells (human, UniProt Q7Z7D3 25-282).
T1 sequence (looked up): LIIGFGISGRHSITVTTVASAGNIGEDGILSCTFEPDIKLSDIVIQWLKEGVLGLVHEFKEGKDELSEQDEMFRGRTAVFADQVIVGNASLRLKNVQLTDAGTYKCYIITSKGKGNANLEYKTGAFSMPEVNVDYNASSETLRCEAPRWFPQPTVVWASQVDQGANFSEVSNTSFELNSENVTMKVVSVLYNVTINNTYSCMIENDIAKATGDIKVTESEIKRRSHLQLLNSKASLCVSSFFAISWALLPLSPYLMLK
As to the kind of experiment: cell-based or functional assay.

The target in assay [1] is T2, human CD3 (delta/epsilon heterodimer) (human, UniProt P07766 23-126; P04234 22-105).
T2 construct: captured on an anti-His chip, so it carries a His tag; also called huCD3
As to the kind of experiment: SPR 37 C; CD3 delta/epsilon on anti-His chip, bispecific analyte; CD3 variant 2B5v598.

The target in assay [2] is T2, human CD3 (delta/epsilon heterodimer). As to the kind of experiment: SPR 37 C; CD3 delta/epsilon on anti-His chip, bispecific analyte; CD3 variant 2B5c707.

T2 sequence (P07766 23-126, stated change not applied, chain 1 of 2): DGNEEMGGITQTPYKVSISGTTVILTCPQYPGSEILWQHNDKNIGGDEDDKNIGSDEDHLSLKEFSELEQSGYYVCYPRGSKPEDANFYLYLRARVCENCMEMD
T2 sequence (P04234 22-105, stated change not applied, chain 2 of 2): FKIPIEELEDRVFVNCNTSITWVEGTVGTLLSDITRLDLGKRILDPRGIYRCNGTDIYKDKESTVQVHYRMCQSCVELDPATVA

B1: B7-H4xCD3 bispecific antibody 0087 (bispecific antibody, IgG2)
heavy 1: QVQLQQWGAGLLKPSETLSLTCAVYGGSFSGYYWNWIRQPPGKGLEWIGEINHSGSTKYNPSLKSRVTISGDTSKNQFSLKLNSVTAADTAVYYCVRGLYNWNVDSWGQGTLVTVSSASTKGPSVFPLAPCSRSTSESTAALGCLVKDYFPEPVTVSWNSGALTSGVHTFPAVLQSSGLYSLSSVVTVPSSNFGTQTYTCNVDHKPSNTKVDKTVERKCEVECPECPAPPVAGPSVFLFPPKPKDTLMISRTPEVTCVVVAVSHEDPEVQFNWYVDGVEVHNAKTKPREEQFNSTFRVVSVLTVVHQDWLNGKEYKCKVSNKGLPSSIEKTISKTKGQPREPQVYTLPPSREEMTKNQVSLTCEVKGFYPSDIAVEWESNGQPENNYKTTPPMLDSDGSFFLYSKLTVDKSRWQQGNVFSCSVMHEALHNHYTQKSLSLSPG
light 1: DIQMTQSPSSLSASVGDRVTITCRASQGIRNDLGWYQQKPGKAPKRLIYVASSLQSGVPSRFSGSGSGTEFTLTISSLQPEDFATYYCLQHNSYPYTFGQGTKLEIKRTVAAPSVFIFPPSDEQLKSGTASVVCLLNNFYPREAKVQWKVDNALQSGNSQESVTEQDSKDSTYSLSSTLTLSKADYEKHKVYACEVTHQGLSSPVTKSFNRGEC
heavy 2: EVQLVESGGGLVQPGGSLRLSCAASGFTFSDYYMTWVRQAPGKGLEWVAFIRNQDRGYTSDHQPSVKGRFTISRDNAKNSLYLQMNSLRAEDTAVYYCARDRPSYYVLDYWGQGTTVTVSSASTKGPSVFPLAPCSRSTSESTAALGCLVKDYFPEPVTVSWNSGALTSGVHTFPAVLQSSGLYSLSSVVTVPSSNFGTQTYTCNVDHKPSNTKVDKTVERKCRVRCPRCPAPPVAGPSVFLFPPKPKDTLMISRTPEVTCVVVAVSHEDPEVQFNWYVDGVEVHNAKTKPREEQFNSTFRVVSVLTVVHQDWLNGKEYKCKVSNKGLPSSIEKTISKTKGQPREPQVYTLPPSREEMTKNQVSLTCLVKGFYPSDIAVEWESNGQPENNYKTTPPMLDSDGSFFLYSRLTVDKSRWQQGNVFSCSVMHEALHNHYTQKSLSLSPG
light 2: DIQMTQSPSSLSASVGDRVTITCTSDQSLFNVRSGKNYLAWYQQKPGKAPKLLIYWASDRESGVPSRFSGSGSGTDFTLTISSLQPEDFATYYCKQSYDLFTFGGGTKVEIKRTVAAPSVFIFPPSDEQLKSGTASVVCLLNNFYPREAKVQWKVDNALQSGNSQESVTEQDSKDSTYSLSSTLTLSKADYEKHKVYACEVTHQGLSSPVTKSFNRGEC
notes: Chains 1-2: B7-H4 arm; chains 3-4: CD3 arm; IgG2; also called CD3 variant 2B5v598
One may read the Kd as the free concentration of one partner at which half of the binding sites on the other are occupied at equilibrium, for simple one-to-one binding. Low values mean tighter binding, high ones weaker binding. The koff is the first-order rate constant of dissociation. A high value points to fast dissociation. Usually kon stands for a measure of how fast the partners come together. Low readings indicate slow association, high ones fast association. As to B1, in the assay with human B7-H4 on cells, the “T cell mediated tumor cell killing EC50, HCC1954-Luc” value came to 57 nM and the “T cell mediated tumor cell killing, MDA-MB-468” value turned out to be 109. Also, in assay [1], the Kd worked out at 124 nM, the koff is 0.0254 s⁻¹ and the kon came to 205000 M⁻¹ s⁻¹.

B2: B7-H4xCD3 bispecific antibody 0088 (bispecific antibody, IgG2)
heavy 1: QVQLQQWGAGLLKPSETLSLTCAVYGGSFSGYYWNWIRQPPGKGLEWIGEINHSGSTKYNPSLKSRVTISGDTSKNQFSLKLNSVTAADTAVYYCVRGLYNWNVDSWGQGTLVTVSSASTKGPSVFPLAPCSRSTSESTAALGCLVKDYFPEPVTVSWNSGALTSGVHTFPAVLQSSGLYSLSSVVTVPSSNFGTQTYTCNVDHKPSNTKVDKTVERKCEVECPECPAPPVAGPSVFLFPPKPKDTLMISRTPEVTCVVVAVSHEDPEVQFNWYVDGVEVHNAKTKPREEQFNSTFRVVSVLTVVHQDWLNGKEYKCKVSNKGLPSSIEKTISKTKGQPREPQVYTLPPSREEMTKNQVSLTCEVKGFYPSDIAVEWESNGQPENNYKTTPPMLDSDGSFFLYSKLTVDKSRWQQGNVFSCSVMHEALHNHYTQKSLSLSPG
light 1: DIQMTQSPSSLSASVGDRVTITCRASQGIRNDLGWYQQKPGKAPKRLIYVASSLQSGVPSRFSGSGSGTEFTLTISSLQPEDFATYYCLQHNSYPYTFGQGTKLEIKRTVAAPSVFIFPPSDEQLKSGTASVVCLLNNFYPREAKVQWKVDNALQSGNSQESVTEQDSKDSTYSLSSTLTLSKADYEKHKVYACEVTHQGLSSPVTKSFNRGEC
heavy 2: EVQLVESGGGLVQPGGSLRLSCAASGFTFSDYYMTWVRQAPGKGLEWVAFIRNQARGYTSDHNPSVKGRFTISRDNAKNSLYLQMNSLRAEDTAVYYCARDRHSYYVLDYWGQGTTVTVSSASTKGPSVFPLAPCSRSTSESTAALGCLVKDYFPEPVTVSWNSGALTSGVHTFPAVLQSSGLYSLSSVVTVPSSNFGTQTYTCNVDHKPSNTKVDKTVERKCRVRCPRCPAPPVAGPSVFLFPPKPKDTLMISRTPEVTCVVVAVSHEDPEVQFNWYVDGVEVHNAKTKPREEQFNSTFRVVSVLTVVHQDWLNGKEYKCKVSNKGLPSSIEKTISKTKGQPREPQVYTLPPSREEMTKNQVSLTCLVKGFYPSDIAVEWESNGQPENNYKTTPPMLDSDGSFFLYSRLTVDKSRWQQGNVFSCSVMHEALHNHYTQKSLSLSPG
light 2: DIQMTQSPSSLSASVGDRVTITCTSSQSLFNVRSQKNYLAWYQQKPGKAPKLLIYWASTRESGVPSRFSGSGSGTDFTLTISSLQPEDFATYYCKQSYYLFTFGGGTKVEIKRTVAAPSVFIFPPSDEQLKSGTASVVCLLNNFYPREAKVQWKVDNALQSGNSQESVTEQDSKDSTYSLSSTLTLSKADYEKHKVYACEVTHQGLSSPVTKSFNRGEC
notes: Chains 1-2: B7-H4 arm; chains 3-4: CD3 arm; IgG2; also called CD3 variant 2B5c707
As to B2, in assay [2], binding was characterised by a dissociation constant (Kd) of 134 nM, the koff stood at 0.0689 s⁻¹ and the kon worked out at 511000 M⁻¹ s⁻¹. Also, in the assay with human B7-H4 on cells, the “T cell mediated tumor cell killing EC50, HCC1954-Luc” value came out at 140 nM and the “T cell mediated tumor cell killing, MDA-MB-468” value came to 655.
